Test results: paper doi:10.64898/2025.12.16.694598

Key:
Assay in all cases: BLI
[1] = target: Recombinant histidine-tagged Ewing Sarcoma Breakpoint Region 1 (EWSR1) protein (UniProt Q01844)
EWSR1 = EWSR1 (UniProt Q01844 1-656)
CHIKV nsP2 = CHIKV nsP2 (Chikungunya virus; strain of the nsP2 …, UniProt Q8JUX6 536-1333)
CHIKV nsP2, sequence (Q8JUX6 536-1333): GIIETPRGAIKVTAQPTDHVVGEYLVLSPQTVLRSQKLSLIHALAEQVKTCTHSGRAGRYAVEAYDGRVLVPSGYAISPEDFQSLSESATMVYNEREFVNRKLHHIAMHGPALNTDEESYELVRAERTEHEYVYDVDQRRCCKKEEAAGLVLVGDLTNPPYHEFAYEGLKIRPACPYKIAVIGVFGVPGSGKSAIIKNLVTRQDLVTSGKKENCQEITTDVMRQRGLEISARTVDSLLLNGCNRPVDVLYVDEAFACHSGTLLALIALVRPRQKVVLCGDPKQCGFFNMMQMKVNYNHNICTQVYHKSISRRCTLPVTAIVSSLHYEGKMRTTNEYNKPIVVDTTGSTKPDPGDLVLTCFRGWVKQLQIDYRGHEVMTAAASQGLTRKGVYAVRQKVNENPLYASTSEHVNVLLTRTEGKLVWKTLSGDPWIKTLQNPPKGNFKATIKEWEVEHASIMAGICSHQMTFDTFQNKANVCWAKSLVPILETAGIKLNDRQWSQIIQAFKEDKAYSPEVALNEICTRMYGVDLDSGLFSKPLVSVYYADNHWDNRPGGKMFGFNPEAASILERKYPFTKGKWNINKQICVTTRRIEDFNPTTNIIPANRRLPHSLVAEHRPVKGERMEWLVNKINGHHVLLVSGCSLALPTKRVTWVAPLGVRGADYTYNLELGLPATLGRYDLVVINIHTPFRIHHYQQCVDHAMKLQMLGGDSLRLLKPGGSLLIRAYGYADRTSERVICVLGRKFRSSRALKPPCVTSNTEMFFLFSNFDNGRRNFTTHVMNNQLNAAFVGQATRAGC

Chikungunya virus non-structural protein 2 (CHIKV nsP2), full-length recombinant, sequence (Q8JUX6 536-1333): as above
Recombinant histidine-tagged Ewing Sarcoma Breakpoint Region 1 (EWSR1) protein, sequence (Q01844 whole entry): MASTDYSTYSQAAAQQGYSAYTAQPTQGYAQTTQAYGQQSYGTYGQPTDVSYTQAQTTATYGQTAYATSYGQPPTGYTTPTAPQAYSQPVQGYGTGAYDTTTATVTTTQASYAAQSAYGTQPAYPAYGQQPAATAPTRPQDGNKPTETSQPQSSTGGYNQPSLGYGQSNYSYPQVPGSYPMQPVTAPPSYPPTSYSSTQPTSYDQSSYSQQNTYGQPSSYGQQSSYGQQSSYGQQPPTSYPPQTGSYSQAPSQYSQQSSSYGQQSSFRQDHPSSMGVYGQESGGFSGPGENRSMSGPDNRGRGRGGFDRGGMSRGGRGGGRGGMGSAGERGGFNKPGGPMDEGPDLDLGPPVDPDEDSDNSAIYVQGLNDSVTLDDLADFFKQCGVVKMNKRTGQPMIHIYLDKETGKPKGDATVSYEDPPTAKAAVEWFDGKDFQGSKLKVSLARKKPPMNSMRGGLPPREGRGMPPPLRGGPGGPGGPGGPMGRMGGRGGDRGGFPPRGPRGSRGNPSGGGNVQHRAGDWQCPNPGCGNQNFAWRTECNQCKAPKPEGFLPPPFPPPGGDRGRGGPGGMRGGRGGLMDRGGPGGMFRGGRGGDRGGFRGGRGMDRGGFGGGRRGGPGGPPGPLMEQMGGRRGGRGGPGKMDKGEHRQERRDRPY
EWSR1, sequence (Q01844 whole entry): as above

Chikungunya virus non-structural protein 2 (CHIKV nsP2), full-length recombinant (from UniProt Q8JUX6) (enzyme)
Kd [1]: 716 nM

CCGAACCCACAGGGACGUAGGAGAUGUUAUUUUGUUUUUAAUAUUUC (ssRNA) [3NCR48]
Kd (EWSR1): 91.4 ± 0.37 nM
Kd (CHIKV nsP2): 92.9 ± 1.6 nM
